Laboratory results as given in the RNAGym collection of RNA variant scans (doi:10.1021/acssynbio.7b00057).

B1: Pistol ribozyme (parent)
chain: GGGUCGUUGUUCCAUAAUCGCGUGGAUAUGGCACGCAAGUUUCUACCGGGCACCGUAAAUGUCCGACUGGAGCCGUUCGGGCGGCUAUAAACAGACCUCAGGCCCGAAGCGUGGCGGCACCUGCCGCCGGUGGUAAAAAAGAUCGGAAGAGCACACGUCU

Variants of: B1
Assay: aptazyme ON/OFF ratio, guanine; higher = stronger switching; co-transcriptional cleavage with and without guanine

| Variant | aptazyme ON/OFF ratio |
| --- | --- |
| U7C G9C U10C C12A | 1.04 |
| U7C G9C U10C C12G | 1.07 |
| U7C G9C U10C C12U | 1.09 |
| U7C G9C U10C U11G C12G C13G | 1.11 |
| U7C G9C U10C U11G C12G C13U | 1.12 |
| U7C G9C U10C U11G C12G C13A | 1.11 |
| U7C G9U U10A U11G C12A | 1.08 |
| U7C G9U U10A U11G C12G | 1.19 |
| U7C G9U U10A U11G C12U | 1.3 |
| U7C G9C U10G U11C C12U C13U | 1.16 |
| U7C G9C U10G U11C C12U C13A | 1.12 |
| U7C G9C U10G U11C C12U C13G | 1.05 |
| U7C G9C U10C U11A C12G C13U | 1.14 |
| U7C G9C U10C U11A C12G C13G | 1.41 |
| U7C G9C U10C U11A C12G C13A | 1.31 |
| U7C G9C U10G C12A C13A | 1.15 |
| U7C G9C U10G C12A C13U | 1.12 |
| U7C G9C U10G C12A C13G | 1.14 |
| U7C G9C U10C C12U C13A | 1.04 |
| U7C G9C U10C C12U C13U | 1.07 |
| U7C G9C U10C C12U C13G | 1.07 |

| Variant | aptazyme ON/OFF ratio |
| --- | --- |
| U7C G9U U10C U11A C12G | 1.05 |
| U7C G9U U10C U11A C12U | 1.19 |
| U7C G9U U10C U11A C12A | 1.25 |
| U7C G9C U10G U11G C12U C13G | 1.13 |
| U7C G9C U10G U11G C12U C13U | 1.12 |
| U7C G9C U10G U11G C12U C13A | 1.07 |
| U7C G9C U10A U11C C12A C13G | 1.07 |
| U7C G9C U10A U11C C12A C13A | 1.08 |
| U7C G9C U10A U11C C12A C13U | 1.05 |
| U7C G9C U10G U11C C12A | 1.19 |
| U7C G9C U10G U11C C12U | 1.11 |
| U7C G9C U10G U11C C12G | 1.25 |
| U7C G9U U10A U11C C12U | 1.1 |
| U7C G9U U10A U11C C12A | 1.29 |
| U7C G9U U10A U11C C12G | 1.43 |
| U7C G9C U10G U11G C12G C13U | 1.09 |
| U7C G9C U10G U11G C12G C13G | 1.11 |
| U7C G9C U10G U11G C12G C13A | 1.08 |
| U7C G9C U10C U11C C12U C13A | 1.03 |
| U7C G9C U10C U11C C12U C13U | 1.01 |
| U7C G9C U10C U11C C12U C13G | 1.02 |

| Variant | aptazyme ON/OFF ratio |
| --- | --- |
| U7C G9U U10A U11A C13U | 1.25 |
| U7C G9U U10A U11A C13G | 1.04 |
| U7C G9U U10A U11A C13A | 1.26 |
| U7C G9C U10C U11C C13G | 1.04 |
| U7C G9C U10C U11C C13A | 1.02 |
| U7C G9C U10C U11C C13U | 1.01 |
| U7C G9C U10G C12U C13U | 1.17 |
| U7C G9C U10G C12U C13G | 1.03 |
| U7C G9C U10G C12U C13A | 1.11 |
| U7C G9U U10C C12G | 1.09 |
| U7C G9U U10C C12A | 1.1 |
| U7C G9U U10C C12U | 1.09 |
| U7C G9C U10C C12A C13G | 1.06 |
| U7C G9C U10C C12A C13A | 1.06 |
| U7C G9C U10C C12A C13U | 1.04 |
| U7C G9C U10C U11G C12A | 1.05 |
| U7C G9C U10C U11G C12G | 1.14 |
| U7C G9C U10C U11G C12U | 1.01 |
| U7C G9C U10C U11C C12A C13G | 1.05 |
| U7C G9C U10C U11C C12A C13A | 1.04 |
| U7C G9C U10C U11C C12A C13U | 1.04 |

| Variant | aptazyme ON/OFF ratio |
| --- | --- |
| U7C G9C U10G U11C C13U | 1.06 |
| U7C G9C U10G U11C C13A | 1.1 |
| U7C G9C U10G U11C C13G | 1.04 |
| U7C G9U C12A | 1.13 |
| U7C G9U C12G | 1.14 |
| U7C G9U C12U | 1.07 |
| U7C G9C U11G C12U C13A | 1.1 |
| U7C G9C U11G C12U C13U | 1.21 |
| U7C G9C U11G C12U C13G | 1.12 |
| U7C G9U U10C U11A C12U C13A | 1.13 |
| U7C G9U U10C U11A C12U C13G | 1.04 |
| U7C G9U U10C U11A C12U C13U | 1.16 |
| U7C G9U C13A | 1.04 |
| U7C G9U C13G | 1.04 |
| U7C G9U C13U | 1.06 |
| U7C G9C U10G U11C C12A C13A | 1.12 |
| U7C G9C U10G U11C C12A C13G | 1.09 |
| U7C G9C U10G U11C C12A C13U | 1.11 |
| U7C G9U U10A U11A C12A | 1.2 |
| U7C G9U U10A U11A C12G | 1.29 |
